In US20230086603A1 (BOLT BIOTHERAPEUTICS, published 2023):

B1: 28 (antibody, V domains shown)
VH: QVQLVQSGAEVKKPGASVKVSCKASGYTFTSYYMHWVRQAPGQGLEWMGWMNPNSGNTGYAQKFQGRVTMTRDTSTSTVYMELSSLRSEDTAVYYCARERFAGGMDAWGQGTTVTVSS
VL: EIVMTQSPATLSVSPGERATLSCRASQSLSSSSLAWYQQKPGQAPRLLIYGASTRATGIPARFSGSGSGTEFTLTISSLQSEDFAVYYCQQYGSSPFTFGPGTKVDIK
B2: 37 (antibody, V domains shown)
VH: QVQLVQSGAEVKKPGASVKVSCKASGYTFTSYGINWVRQAPGQGLEWMGWMNPNSGNTGYAQKFQGRVTMTRDTSTSTVYMELSSLRSEDTAVYYCARGSFPLVFTIFGVGDVWGQGTMVTVSS
VL: DIQMTQSPSSLSASVGDRVTITCRSSQGIRNDLSWYQQKPGKAPKLLIYLASNSHSGVPSRFSGSGSGTDFTLTISSLQPEDFATYYCLQHNSYPLTFGGGTKVEIK
B3: 31 (antibody, V domains shown)
VH: QVQLVQSGAEVKKPGASVKVSCKASGYTFTSYYMHWVRQAPGQGLEWMGWLTPSTGHAGYAQKFQGRVTMTRDTSTSTVYMELSSLRSEDTAVYYCAREGYGGNYGNWGQGTLVTVSS
VL: DIQMTQSPSSLSASVGDRVTITCRASQSISPWLAWYQQKPGKAPKLLIYDASNLETGVPSRFSGSGSGTDFTLTISSLQPEDFATYYCQQTYSTPITFGQGTRLEIK
B4: 69 (antibody, V domains shown)
VH: QVQLVQSGAEVKKPGASVKVSCKASGYTFTSYYMHWVRQAPGQGLEWMGWINPNSGNTGYAQKFQGRVTMTRDTSTSTVYMELSSLRSEDTAVYYCARDDWGGDWFDYWGQGTLVTVSS
VL: DIQMTQSPSSLSASVGDRVTITCQASQDISNHLNWYQQKPGKAPKLLIYGASNLQRGVPSRFSGSGSGTDFTLTISSLQPEDFATYYCQQSYSTPITFGQGTRLEIK
B5: 33 (antibody, V domains shown)
VH: QVQLVQSGAEVKKPGASVKVSCKASGYTFTRHFIHWVRQAPGQGLEWMGWIDPNSGVTSSAQKFQGRVTMTRDTSTSTVYMELSSLRSEDTAVYYCARELSRWGFDYWGPGTMVTVSS
VL: EIVMTQSPATLSVSPGERATLSCRASQTVSSNYLAWYQQKPGQAPRLLIYGASTRASGIPARFSGSGSGTEFTLTISSLQSEDFAVYYCQQYYTTPLTFGGGTKVEIK
B6: 6 (antibody, V domains shown)
VH: QVQLVQSGAEVKKPGASVKVSCKASGYTFTSYYIHWVRQAPGQGLEWMGWMKPSSGTTGYAQKFQGRVTMTRDTSTSTVYMELSSLRSEDTAVYYCAREQWLVNDAFDIWGQGTLVTVSS
VL: EIVMTQSPATLSVSPGERATLSCRASQSVDRNYVTWYQQKPGQAPRLLIYGASTRATGIPARFSGSGSGTEFTLTISSLQSEDFAVYYCQQSYTTPYTFGQGTKVEIK
B7: 30 (antibody, V domains shown)
VH: QVQLVQSGAEVKKPGASVKVSCKASGYPFSTYYMHWVRQAPGQGLEWMGWMNPHSADTGYAEKFQGRVTMTRDTSTSTVYMELSSLRSEDTAVYYCAREVFEGGMDVWGQGTTVTVSS
VL: DIQMTQSPSSLSASVGDRVTITCRASQSVGSWVAWYQQKPGKAPKLLIYPASTLQSGVPSRFSGSGSGTDFTLTISSLQPEDFATYYCQQSYSTPLTFGGGTKVEIK
B8: 4 (antibody, V domains shown)
VH: QVQLVQSGAEVKKPGASVKVSCKASGYTFTSHHMHWVRQAPGQGLEWMGWVSPSHGLTGYAQKFQGRVTMTRDTSTSTVYMELSSLRSEDTAVYYCARDNWNVHDAFDIWGQGTLVTVSS
VL: DIQMTQSPSSLSASVGDRVTITCRASQGISSYLAWYQQKPGKAPKLLIYGASNLQSGVPSRFSGSGSGTDFTLTISSLQPEDFATYYCQQSYSTPLTFGGGTKVEIK
B9: 26 (antibody, V domains shown)
VH: QVQLAQSGAEVKKPGASVKVSCKASGYTFTNHYMHWVRQAPGQGLEWMGWMNPNSGNTGYAQKFQGRVTMTRDTSTSTVYMELSSLRSEDTAVYYCARDRWDGDYYSAWGQGTLVTVSS
VL: DIQMTQSPSSLSASVGDRVTITCRASQSISNWLAWYQQKPGKAPKLLIYDVSHLESGVPSRFSGSGSGTDFTLTISSLQPEDFATYYCQQSYSTPFTFGPGTKVDIK
B10: 25 (antibody, V domains shown)
VH: QVQLVQSGAEVKKPGASVKVSCKASGYTFTGYYMHWVRQAPGQGLEWMGWMNPNSDIAGYAQKFQGRVTMTRDTSTSTVYMELSSLRSEDTAVYYCARDAWELLAFDIWGQGTLVTVSS
VL: DIQMTQSPSSLSASVGDRVTITCRASQSVSTWLAWYQQKPGKAPKLLIYAASNLESGVPSRFSGSGSGTDFTLTISSLQPEDFATYYCQQSYSTPYTFGQGTKLEIK
B11: 67 (antibody, V domains shown)
VH: QVQLVQSGAEVKKPGASVKVSCKASGYTFSTHYMHWVRQAPGQGLEWMGWINPNSGHAGSAQKFQGRVTMTRDTSTSTVYMELSSLRSEDTAVYYCARESIAVAGYDYWGQGTLVTVSS
VL: DIQMTQSPSSLSASVGDRVTITCRASQSISSWLAWYQQKPGKAPKLLIYAASTLQRGVPSRFSGSGSGTDFTLTISSLQPEDFATYYCQQSYSTPYTFGQGTKLEIK
B12: 70 (antibody, V domains shown)
VH: QVQLVQSGAEVKKPGASVKVSCKASGYTFTDHYLHWVRQAPGQGLEWMGWINPNIGNTGYAQKFQGRVTMTRDTSTSTVYMELSSLRSEDTAVYYCAREPLQLGGFDYWGQGTLVTVSS
VL: DIQMTQSPSSLSASVGDRVTITCRASESISSWLAWYQQKPGKAPKLLIYAASSLQSGVPSRFSGSGSGTDFTLTISSLQPEDFATYYCQQSYSTPLTFGQGTKLEIK
B13: 35 (antibody, V domains shown)
VH: QVQLVQSGAEVKKPGASVKVSCKASGYPFSSYYMHWVRQAPGQGLEWMGMINPSGGSTSYAQKFQGRVTMTRDTSTSTVYMELSSLRSEDTAVYYCARDIFPTMIAGGGFDLWGRGTLVTVSS
VL: DIQMTQSPSSLSASVGDRVTITCRASQSISSWLAWYQQKPGKAPKLLIYDASNLETGVPSRFSGSGSGTDFTLTISSLQPEDFATYYCQQSYSTPPTFGQGTKVEIK
B14: 32 (antibody, V domains shown)
VH: QVQLVQSGAEVKKPGASVKVSCKASGYTFTSYYMHWVRQAPGQGLEWMGWMNPNSGHTGYAQKFQGRVTMTRDTSTSTVYMELSSLRSEDTAVYYCAREDFYGDFDYWGQGTLVTVSS
VL: DIQMTQSPSSLSASVGDRVTITCRASQGISRYLAWYQQKPGKAPKLLIYAASTLQSGVPSRFSGSGSGTDFTLTISSLQPEDFATYYCQQSYSTPLTFGQGTKVEIK
B15: 5 (antibody, V domains shown)
VH: QVQLVQSGAEVKKPGASVKVSCKASGYTFNRFMHWVRQAPGQGLEWMGWMSLNSGLTGYAQKFQGRVTMTRDTSTSTVYMELSSLRSEDTAVYYCTRGTYNDAFDIWGQGTLVTVSS
VL: DIQMTQSPSSLSASVGDRVTITCRASQTISNYLNWYQQKPGKAPKLLIYAASSLQSGVPSRFSGSGSGTDFTLTISSLQPEDFATYYCQQSYTTPITFGGGTKVEIK
B16: 68 (antibody, V domains shown)
VH: QVQLVQSGAEVKKPGASVKVSCKASGYTFTGYYMHWVRQAPGQGLEWMGWINPNSGTTGYAQNFQGRVTMTRDTSTSTVYMELSSLRSEDTAVYYCAREGFGPNAFDIWGQGTTVTVSS
VL: DIQMTQSPSSLSASVGDRVTITCRASQSISSWLAWYQQKPGKAPKLLIYAASNLQSGVPSRFSGSGSGTDFTLTISSLQPEDFATYYCQQYYSTPYTFGQGTKVEIK
B17: 27 (antibody, V domains shown)
VH: QVQLVQSGAEVKKPGASVKVSCKASGYTFTNYYIHWVRQAPGQGLEWMGWMSPNGGNTGYAQKFQGRVTMTRDTSTSTVYMELSSLRSEDTAVYYCARESWELTGFDYWGQGTLVTVSS
VL: DIQMTQSPSSLSASVGDRVTITCQASQGISNYLAWYQQKPGKAPKLLIYDASSLQSGVPSRFSGSGSGTDFTLTISSLQPEDFATYYCQQSYSTPLTFGGGTKVEIK
B18: 66 (antibody, V domains shown)
VH: QVQLVQSGAEVKKPGASVKVSCKASGYTFSSYYMHWVRQAPGQGLEWMGWITTNSGITGYAQKFQGRVTMTRDTSTSTVYMELSSLRSEDTAVYYCAREGYSSGLDYWGQGTLVTVSS
VL: not shown
B19: 29 (antibody, V domains shown)
VH: QVQLVQSGAEVKKPGASVKVSCKASGYTFSNSYMHWVRQAPGQGLEWMGWMDPSSGYTGSAHKFQGRVTMTRDTSTSTVYMELSSLRSEDTAVYYCAEDSGGAFDIWGQGTMVTVSS
VL: DIQMTQSPSSLSASVGDRVTITCRASEHIANWLAWYQQKPGKAPKLLIYGVSSLESGVPSRFSGSGSGTDFTLTISSLQPEDFATYYCQQSYSTPYTFGQGTKLEIK
B20: 34 (antibody, V domains shown)
VH: QVQLVQSGAEVKKPGASVKVSCKASGYTFTRHLLHWVRQAPGQGLEWMGWISPQHGVRNYAHKFQGRVTMTRDTSTSTVYMELSSLRSEDTAVYYCARESVEGYFDLWGRGTLVTVSS
VL: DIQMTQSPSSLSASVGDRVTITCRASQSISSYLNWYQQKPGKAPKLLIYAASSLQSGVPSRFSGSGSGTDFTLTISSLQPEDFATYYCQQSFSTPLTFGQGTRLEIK
B21: PD-L1 binding agent 10 (antibody, V domains shown)
VH: QVQLVQSGAEVKKPGASVKVSCKASGYTFTGYYMHWVRQAPGQGLEWIGWMSLNSGLTGYAQKFQGRVTMTRDTSTSTVYMELSSLRSEDTAVYYCARDRGWFDPWGQGTLVTVSS
VL: DIQMTQSPSSLSASVGDRVTITCRASQSISSWLAWYQQKPGKAPKLLIYAASTLESGVPSRFSGSGSGTDFTLTISSLQPEDFATYYCQQSYTTPYSFGGGTKVEIK

Each binder was assayed against T1, human PD-L1 (hPD-L1) (human, UniProt Q9NZQ7 19-290) (assay: flow cytometry on JIMT-1 cells expressing endogenous human PD-L1; anti-human IgG Fc secondary; geometric MFI).
T1 construct: Endogenous hPD-L1 on JIMT1 (JIMT-1) cells; also called programmed death-ligand 1; CD274
T1 sequence (Q9NZQ7 19-290 limits assumed): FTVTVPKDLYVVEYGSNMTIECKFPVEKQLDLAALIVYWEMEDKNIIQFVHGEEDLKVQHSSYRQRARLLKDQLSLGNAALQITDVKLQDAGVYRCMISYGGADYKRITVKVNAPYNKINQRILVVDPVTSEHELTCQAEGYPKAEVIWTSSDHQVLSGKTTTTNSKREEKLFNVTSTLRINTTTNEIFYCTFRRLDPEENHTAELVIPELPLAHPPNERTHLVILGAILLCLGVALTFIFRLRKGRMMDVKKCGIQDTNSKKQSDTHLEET
Procedure: Binding of the binding agents of an embodiment of the invention to human PD-L1 (hPD-L1) on cell surfaces was assessed by incubating the binding agents with JIMT1 cells that express endogenous hPD-L1. Briefly, the binding agents were diluted serially in FACS buffer (PBS+1% FBS+5 mM EDTA, pH 7.4) at 4° C. Diluted binding agents were applied to JIMT1 cells (˜1×10⁵-2×10⁵ per well) and incubated at 4° C. […] After unbound secondary antibody was washed out, cells were resuspended in FACS buffer plus 2% formaldehyde and analyzed by flow cytometry. The intensity of fluorescence, expressed as geometric mean fluorescence intensity, was used to determine anti-PDL1 binding agent binding to hPD-L1 on cell surface.
B1: binds. B2: binds. B3: binds. B4: binds. B5: binds. B6: binds. B7: binds. B8: binds. B9: binds. B10: binds. B11: binds. B12: binds. B13: binds. B14: binds. B15: binds. B16: binds. B17: binds. B18: binds. B19: binds. B20: binds.

These binders were tested against PD-L1 on CHO-K1/PD-L1/alphaAPC stimulator cells (UniProt Q9NZQ7 19-290, limits assumed) (assay: cell-based or functional assay).
Chain of PD-L1 on CHO-K1/PD-L1/alphaAPC stimulator cells (Q9NZQ7 19-290 limits assumed): as above
With B21 the “EC50 (nM), PD-L1/PD-1 blockade, luciferase reporter cells” value was 2.02 nM and the “EC50 (ng/ml), PD-L1/PD-1 blockade, luciferase reporter cells” value was 291 ng/mL.
